# Test results from patent US20240376189A1 (University of Pennsylvania, published 2024).
# T1: human C5a (human, UniProt P01031 678-751, biotinylated in the U937/C5aR ligand blocking assay (site not stated))
# T1 construct: also called human antigen; huC5a
# T1 sequence: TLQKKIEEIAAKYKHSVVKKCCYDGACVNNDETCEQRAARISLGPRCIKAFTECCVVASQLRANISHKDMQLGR
# Tests used:
# [1] = target: T2, human C5 (human, UniProt P01031 19-673; P01031 678-1676, limits assumed); test: ELISA, affinity for human C5 against affinity for human C5a
# T2 construct: In the sheep RBC lysis assay, C5 is the C5 of normal human serum; also called huC5
# [2] = target: T1, human C5a; test: ligand blocking, flow cytometry: antibody titrated against 20 nM biotinylated human C5a binding to U937/C5aR cells, Experiment #2
# Method: (§1) U937/C5aR cells were washed twice by PBS and suspended in assay buffer (PBS+0.1% BSA) at the density of 3×10⁶ cells/ml. […] 1000 rpm centrifuge for 3-5 min at 4° C., remove supernatant and cells were washed by pre-cold PBS twice. Add 100 μl FITC conjugated streptavidin (eBioscience) to cells and incubate on ice for another 30 min. Centrifuge at 4° C., remove supernatant and cells were washed by pre-cold PBS twice. Add 150 μl 0.5% PFA to suspend cells and detect the signal by FACS (Beckman, Cytoflex). IC₅₀ value was calculated by GraphPad Prism software.
# (§2) Mean fluorescence intensities were measured at each antibody concentration. U937 cells without addition of antibodies was used as the low control.
# [3] = target: T1, human C5a; test: ELISA, antibody titrated on C5a-coated plate
# [4] = target: T1, human C5a; test: ligand blocking, flow cytometry: antibody titrated against 20 nM biotinylated human C5a binding to U937/C5aR cells, Experiment #1
# Method: as §1, §2
# [5] = target: T2, human C5; test: BLI (Gator), antibody on anti-human IgG Fc probes, 40 nM human C5 bound 600 s at pH 7.4, 600 s dissociation at pH 5.8
# Method: (§3) pH dependency of the humanized anti-C5a constructs were tested using C5 binding assays. A Biolayer interferometry instrument, Gator™ (Probe life Inc., USA) was used to determine pH dependent dissociation of histidine mutants and the benchmark antibodies. Briefly, anti-human IgG Fc (FHC) Probes were equilibrated in the kinetic (K) buffer of Phosphate-buffered saline containing 0.02% bovine serum albumin and 0.002% Tween20 pH 7.4. Antibodies were captured onto the sensors by dipping them into 200 μL of transfection supernatant for 600 s at pH 7.4. The biosensors were then incubated with human C5 prepared in the K buffer pH 7.4 (40 nM) for 600s followed by 600-second dissociation period in K Buffer, pH 7.4 or pH 5.8. The data were processed and analyzed by the Gator evaluation software.
# [6] = target: T1, human C5a; test: cell-based or functional assay
# [7] = target: T2, human C5; test: ELISA, antibody titrated on C5-coated plate
# Source text: The anti-C5a constructs were further tested for their affinities to human C5 using ELISA. Off-target C5 binding reduces availability of anti-C5a antibodies (C5-mediated “sink effect”). […] Each data point was the mean of 2 replicates.
# [8] = target: T2, human C5; test: BLI (Gator), percentage dissociation from human C5 at pH 5.8 over pH 7.4
# Method: as §3
# [9] = target: T2, human C5; test: BLI (Gator), antibody on anti-human IgG Fc probes, 40 nM human C5 bound 600 s at pH 7.4, 600 s dissociation at pH 7.4
# Method: as §3
# [10] = target: T1, human C5a; test: cell-based or functional assay; remark: listed apart in the source
# [11] = target: T3, cynomolgus antigen (cynomolgus); test: SPR, scFv captured, cynomolgus antigen as analyte
# T3 construct: also called cyno antigen; cynomolgus monkey C5a
# [12] = target: T1, human C5a; test: SPR, scFv captured via anti-c-myc/anti-His, 5 nM human antigen as analyte, 1:1 fit
# [13] = target: T3, cynomolgus antigen; test: SPR, scFv captured via anti-c-myc/anti-His, 60 nM cynomolgus antigen as analyte, 1:1 fit
# Method: The activator was prepared by mixing 400 mM EDC (1-ethyl-3-(3-dimethylaminopropyl) carbodiimide) and 100 mM NHS (N-hydroxysuccinimide) (GE) immediately prior to injection. The CMS sensor chip was activated for 600 s with the mixture at a flow rate of 10 μL/min. Mixture of anti-c-myc and anti his antibodies in 10 mM NaAc (pH 4.5) was then injected to Fc1 and Fc2 of channel 1 to channel 8 for 600 seconds at a flow rate of 10 μL/min. The chip was deactivated by 1 M ethanolamine-HCl (GE) at a flow rate of 10 μL/min for 420 seconds.
# The anti-C5a scFv was diluted to 0.5 μg/ml, the other samples were diluted to 2 μg/ml in running buffer 1×HBS-EP+ (0.01 M HEPES, 0.15 M NaCl, 0.003 M EDTA, 0.05% surfactant P20). […] Diluted TES buffer was injected into channel Fc1 at a flow rate of 10 μL/min for 40 s, diluted scFv was injected into channel Fc2 at a flow rate of 10 μL/min for 40 s. […] 10 mM glycine pH 1.5 as regeneration buffer was injected following every dissociation phase. The chip was regenerated with 10 mM glycine pH 1.5.
# The sensorgrams for reference channel Fc1 and buffer channel were subtracted from the test sensorgrams. Data were fitted by 1:1 kinetic binding model. Molecular weight of 8.4 kDa was used to calculate the molar concentration of the cyno antigen.
binder,measurement,setting,value
"E54H (humanized anti-C5a IgG4 antibody) (antibody, V domains shown, Carries F29H and E54H in VH and Y96H in VL (Kabat) relative to 16D10) VH: QVQLVQSGAEVKKPGSSVKVSCKASGYTHTDHIIHWMRQAPGQGLEWMGYIYPRHGWTNYNENFKGRVTITADKSTSTAYMELSSLRSEDTAVYYCARERNLEYFDYWGQGTTVTVSS VL: DIVLTQSPASLAVSPGQRATITCKASQSVDYEGFNYMNWYQQKPGQPPKLLIYAASNLDSGVPARFSGSGSGTDFTLTINPVEAEDTANYYCQQSNEDPHTFGGGTKVEIKR",Fold affinity (C5/C5a),[1],5.6 fold
same,IC50,[2],6.53 nM
same,"affinity determined by ELISA, huC5a",[3],0.336 nM
same,IC50,[4],2.57 nM
same,Dissociation pH 5.8 (%),[5],60.8%
same,"Inhibition of calcium influx IC50 (nM), FLIPR, Experiment #1",[6],0.136 nM
same,"Inhibition of calcium influx IC50 (nM), FLIPR, Experiment #2",[6],0.154 nM
same,"affinity determined by ELISA, huC5",[7],0.0601 nM
same,Ratio between dissociation at pH 5.8 and 7.4,[8],11.3
same,Dissociation pH 7.4 (%),[9],5.39%
same,"Inhibition of cell migration IC50 (nM), U937-C5aR cells",[10],0.076 nM
"N97H (humanized anti-C5a IgG4 antibody) (antibody, V domains shown, Carries F29H and N97H in VH and Y96H in VL (Kabat)) VH: QVQLVQSGAEVKKPGSSVKVSCKASGYTHTDHIIHWMRQAPGQGLEWMGYIYPREGWTNYNENFKGRVTITADKSTSTAYMELSSLRSEDTAVYYCARERHLEYFDYWGQGTTVTVSS VL: DIVLTQSPASLAVSPGQRATITCKASQSVDYEGFNYMNWYQQKPGQPPKLLIYAASNLDSGVPARFSGSGSGTDFTLTINPVEAEDTANYYCQQSNEDPHTFGGGTKVEIKR",Fold affinity (C5/C5a),[1],6 fold
same,IC50,[2],5.96 nM
same,"affinity determined by ELISA, huC5a",[3],0.408 nM
same,IC50,[4],4.71 nM
same,Dissociation pH 5.8 (%),[5],49%
same,"Inhibition of calcium influx IC50 (nM), FLIPR, Experiment #1",[6],0.072 nM
same,"Inhibition of calcium influx IC50 (nM), FLIPR, Experiment #2",[6],0.138 nM
same,"affinity determined by ELISA, huC5",[7],0.0682 nM
same,Ratio between dissociation at pH 5.8 and 7.4,[8],10.9
same,Dissociation pH 7.4 (%),[9],4.49%
same,"Inhibition of cell migration IC50 (nM), U937-C5aR cells",[10],0.07 nM
"NM2 (scFv, V domains shown, scFv expressed in E. coli BL21 (periplasmic extract)) VH: QVQLVQSGAEVKKPGSSVKVSCKASGYTFTDHIIHWMRQAPGQGLEWMGYIYPREGNTNYNENFKGRVTITADKSTSTAYMELSSLRSEDTAVYYCARERNLEYFDYWGQGTTVTVSS VL: DIVLTQSPASLAVSPGQRATITCKASQSVDYEGDNYMNWYQQKPGQPPKLLIYAASNLDSGVPARFSGSGSGTDFTLTINPVEAEDTANYYCQQSNEDPHTFGGGTKVEIK",Kd,[11],190 nM
same,koff,[11],0.133 s⁻¹
same,kon,[11],702000 M⁻¹ s⁻¹
same,koff,[12],0.000736 s⁻¹
same,koff,[13],0.0783 s⁻¹
"16D10 (humanized anti-C5a IgG4 antibody) (antibody, V domains shown, also called WT (16D10); WT) VH: QVQLVQSGAEVKKPGSSVKVSCKASGYTFTDHIIHWMRQAPGQGLEWMGYIYPREGWTNYNENFKGRVTITADKSTSTAYMELSSLRSEDTAVYYCARERNLEYFDYWGQGTTVTVSS VL: DIVLTQSPASLAVSPGQRATITCKASQSVDYEGFNYMNWYQQKPGQPPKLLIYAASNLDSGVPARFSGSGSGTDFTLTINPVEAEDTANYYCQQSNEDPYTFGGGTKVEIKR",Fold affinity (C5/C5a),[1],9.3 fold
same,IC50,[2],5.9 nM
same,"affinity determined by ELISA, huC5a",[3],0.269 nM
same,IC50,[4],2.03 nM
same,Dissociation pH 5.8 (%),[5],-2.42%
same,"Inhibition of calcium influx IC50 (nM), FLIPR, Experiment #1",[6],0.106 nM
same,"Inhibition of calcium influx IC50 (nM), FLIPR, Experiment #2",[6],0.135 nM
same,"affinity determined by ELISA, huC5",[7],0.0288 nM
same,Ratio between dissociation at pH 5.8 and 7.4,[8],-2.09
same,Dissociation pH 7.4 (%),[9],1.16%
same,"Inhibition of cell migration IC50 (nM), U937-C5aR cells",[10],0.061 nM
"N92H (humanized anti-C5a IgG4 antibody) (antibody, V domains shown, Carries F29H in VH and N92H and Y96H in VL (Kabat); also called N92H antibody) VH: QVQLVQSGAEVKKPGSSVKVSCKASGYTHTDHIIHWMRQAPGQGLEWMGYIYPREGWTNYNENFKGRVTITADKSTSTAYMELSSLRSEDTAVYYCARERNLEYFDYWGQGTTVTVSS VL: DIVLTQSPASLAVSPGQRATITCKASQSVDYEGFNYMNWYQQKPGQPPKLLIYAASNLDSGVPARFSGSGSGTDFTLTINPVEAEDTANYYCQQSHEDPHTFGGGTKVEIKR",Fold affinity (C5/C5a),[1],3.9 fold
same,IC50,[2],6.23 nM
same,"affinity determined by ELISA, huC5a",[3],0.468 nM
same,IC50,[4],3.68 nM
same,Dissociation pH 5.8 (%),[5],54.2%
same,"Inhibition of calcium influx IC50 (nM), FLIPR, Experiment #1",[6],0.078 nM
same,"Inhibition of calcium influx IC50 (nM), FLIPR, Experiment #2",[6],0.145 nM
same,"affinity determined by ELISA, huC5",[7],0.12 nM
same,Ratio between dissociation at pH 5.8 and 7.4,[8],6.54
same,Dissociation pH 7.4 (%),[9],8.29%
same,"Inhibition of cell migration IC50 (nM), U937-C5aR cells",[10],0.099 nM
